This series has as its system influenza endonuclease (purified viral ribonucleoprotein, low-pH treated; polymerase-associated cap-dependent endonuclease) (Influenza virus). The experiment in a line: competition. The following applies: 5'-triphosphate; 2'-OMe on G1; 3'-terminal 3'-dA; filter retention competition; binding is cap dependent; scale: % of labeled capped 10-mer binding competed at up to 150 nM.

For the sequence “GUAUUAAUAA [5'-triphosphorylated 10-mer (uncapped)]”, the binding signal was determined as 10.

These data come from US5861501.
